Assay results taken from article PMC7933982 (The Journal of Cell Biology, 2021).

Biological target: T1, GST-CBD (S. cerevisiae, UniProt P19524 1152-1574)
T1 sequence (looked up): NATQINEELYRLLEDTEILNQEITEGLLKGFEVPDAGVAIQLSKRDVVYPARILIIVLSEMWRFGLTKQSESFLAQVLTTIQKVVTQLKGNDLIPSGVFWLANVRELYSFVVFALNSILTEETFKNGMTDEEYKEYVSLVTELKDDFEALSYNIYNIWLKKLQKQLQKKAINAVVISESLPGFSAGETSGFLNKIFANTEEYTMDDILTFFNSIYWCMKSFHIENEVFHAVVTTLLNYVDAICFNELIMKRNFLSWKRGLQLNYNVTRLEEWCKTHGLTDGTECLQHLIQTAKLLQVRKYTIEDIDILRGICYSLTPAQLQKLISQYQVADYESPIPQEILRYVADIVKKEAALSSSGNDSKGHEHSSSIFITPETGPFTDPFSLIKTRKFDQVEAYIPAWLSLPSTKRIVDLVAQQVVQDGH
Assay: pull-down

B1: 6xHis-Pea2_(221–350) (domain or fragment, S. cerevisiae, UniProt P40091 221-350, looked up)
chain: EKNTSSPPISPNAAAIQEEDSSKKLEELETAFSDLQLAHNFLTKQFENDRAEYVQDIEKLTRTNRELQDKLLNNHSNLSKTEKKLHELEQENKELEKANNKLNSSRHNFGMSSPASSPVTWDPSSPSSVG
Does B1 bind?
Result: binds
